Assay results taken from the MegaScale stability set (Tsuboyama et al. 2023).

B1: EEHEE_rd4_0469 (parent)
chain: ITIHVNGVTYHFDNPEEAEKFAQKMAKTYQLKMEIHNGEFHME

Variants of: B1
Assay: folding stability dG (cDNA display proteolysis); higher = more stable
Settings: PBS, room temperature

Row | Variant | folding stability dG [kcal/mol]
1 | ITIHVNGVTYHFDNPEEAEKFAQKMAKTYQLKMEIMNGEFHME [H36M] | 0.945
2 | ITIHVNGVTYHFDNPEEAEKFAQKMAKTYQLKMEIYNGEFHME [H36Y] | 1.26
3 | ITIHVNGVTYHFDNPEEAEKFAQKMAKTYQLKMEIANGEFHME [H36A] | 0.796
4 | ITIHVNGVTYHFDNPEEAEKFAQKMAKTYQLKMEIRNGEFHME [H36R] | 1.49
5 | ITIHVNGVTYHFDNPEEAEKFAQKMAKTYQLKMEITNGEFHME [H36T] | 0.926
6 | ITIHVNGVTYHFDNPEEAEKFAQKMAKTYQLKMEIKNGEFHME [H36K] | 1.28
7 | ITIHVNGVTYHFDNPEEAEKFAQKMAKTYQLKMEIVNGEFHME [H36V] | 1.35
8 | ITIHVNGVTYHFDNPEEAEKFAQKMAKTYQLKMEIINGEFHME [H36I] | 1.66
9 | ITIHVNGVTYHFDNPEEAEKFAQKMAKTYQLKMEIWNGEFHME [H36W] | 1.24
10 | ITIHVNGVTYHFDNPEEAEKFAQKMAKTYQLKMEIFNGEFHME [H36F] | 1.19
11 | ITIHVNGVTYHFDNPEEAEKFAQKMAKTYQLKMEISNGEFHME [H36S] | 0.832
12 | ITIHVNGVTYHFDNPEEAEKFAQKMAKTYQLKMEIPNGEFHME [H36P] | 0.499
13 | ITIHVNGVTYHFDNPEEAEKFAQKMAKTYQLKMEIGNGEFHME [H36G] | 0.601
14 | ITIHVNGVTYHFDNPEEAEKFAQKMAKTYQLKMEIDNGEFHME [H36D] | 0.709
15 | ITIHVNGVTYHFDNPEEAEKFAQKMAKTYQLKMEINNGEFHME [H36N] | 0.903
16 | ITIHVNGVTYHFDNPEEAEKFAQKMAKTYQLKMEICNGEFHME [H36C] | 1.69
17 | ITIHVNGVTYHFDNPEEAEKFAQKMAKTYQLKMEIENGEFHME [H36E] | 0.92
18 | ITIHVNGVTYHFDNPEEAEKFAQKMAKTYQLKMEIQNGEFHME [H36Q] | 0.93
19 | ITIHVNGVTYHFDNPEEAEKFAQKMAKTYQLKMEILNGEFHME [H36L] | 1.2
20 | ITIHVNGVTYHFDNPEEAEKFAQKMAKTYVLKMEIHNGEFHME [Q30V] | 0.688

Row | Variant | folding stability dG [kcal/mol]
21 | ITIHVNGVTYHFDNPEEAEKFAQKMAKTYWLKMEIHNGEFHME [Q30W] | 1.11
22 | ITIHVNGVTYHFDNPEEAEKFAQKMAKTYYLKMEIHNGEFHME [Q30Y] | 1.14
23 | ITIHVNGVTYHFDNPEEAEKFAQKMAKTYQLKMEIHDGEFHME [N37D] | 1.02
24 | ITIHVNGVTYHFDNPEEAEKFAQKMAKTYQLKMEIHFGEFHME [N37F] | 1.19
25 | ITIHVNGVTYHFDNPEEAEKFAQKMAKTYQLKMEIHEGEFHME [N37E] | 0.831
26 | ITIHVNGVTYHFDNPEEAEKFAQKMAKTYQLKMEIHAGEFHME [N37A] | 0.861
27 | ITIHVNGVTYHFDNPEEAEKFAQKMAKTYQMKMEIHNGEFHME [L31M] | 1.01
28 | ITIHVNGVTYHFDNPEEAEKFAQKMAKTYQKKMEIHNGEFHME [L31K] | 0.692
29 | ITIHVNGVTYHFDNPEEAEKFAQKMAKTYQPKMEIHNGEFHME [L31P] | 1.13
30 | ITIHVNGVTYHFDNPEEAEKFAQKMAKTYQVKMEIHNGEFHME [L31V] | 1.28
31 | ITIHVNGVTYHFDNPEEAEKFAQKMAKTYQFKMEIHNGEFHME [L31F] | 1.1
32 | ITIHVNGVTYHFDNPEEAEKFAQKMAKTYQWKMEIHNGEFHME [L31W] | 0.829
33 | ITIHVNGVTYHFDNPEEAEKFAQKMAKTYQAKMEIHNGEFHME [L31A] | 0.799
34 | ITIHVNGVTYHFDNPEEAEKFAQKMAKTYQTKMEIHNGEFHME [L31T] | 0.775
35 | ITIHVNGVTYHFDNPEEAEKFAQKMAKTYQGKMEIHNGEFHME [L31G] | 1.02
36 | ITIHVNGVTYHFDNPEEAEKFAQKMAKTYQEKMEIHNGEFHME [L31E] | 1.29
37 | ITIHVNGVTYHFDNPEEAEKFAQKMAKTYQSKMEIHNGEFHME [L31S] | 0.767
38 | ITIHVNGVTYHFDNPEEAEKFAQKMAKTYQRKMEIHNGEFHME [L31R] | 0.214
39 | ITIHVNGVTYHFDNPEEAEKFAQKMAKTYQNKMEIHNGEFHME [L31N] | 1
40 | ITIHVNGVTYHFDNPEEAEKFAQKMAKTYQYKMEIHNGEFHME [L31Y] | 1.14

Row | Variant | folding stability dG [kcal/mol]
41 | ITIHVNGVTYHFDNPEEAEKFAQKMAKTYQCKMEIHNGEFHME [L31C] | 2.3
42 | ITIHVNGVTYHFDNPEEAEKFAQKMAKTYQHKMEIHNGEFHME [L31H] | 0.984
43 | ITIHVNGVTYHFDNPEEAEKFAQKMAKTYQQKMEIHNGEFHME [L31Q] | 0.833
44 | ITIHVNGVTYHFDNPEEAEKFAQKMAKTYQDKMEIHNGEFHME [L31D] | 1.3
45 | ITIHVNGVTYHFDNPEEAEKFAQKMAKTYQIKMEIHNGEFHME [L31I] | 1.15
46 | ITIHVNGVTYHFDNPEEAEKFAQKMAKTYQLKYEIHNGEFHME [M33Y] | 1.11
47 | ITIHVNGVTYHFDNPEEAEKFAQKMAKTYQLKCEIHNGEFHME [M33C] | 2.62
48 | ITIHVNGVTYHFDNPEEAEKFAQKMAKTYQLKQEIHNGEFHME [M33Q] | 0.352
49 | ITIHVNGVTYHFDNPEEAEKFAQKMAKTYQLKIEIHNGEFHME [M33I] | 1.6
50 | ITIHVNGVTYHFDNPEEAEKFAQKMAKTYQLKNEIHNGEFHME [M33N] | 0.297
51 | ITIHVNGVTYHFDNPEEAEKFAQKMAKTYQLKWEIHNGEFHME [M33W] | 1.36
52 | ITIHVNGVTYHFDNPEEAEKFAQKMAKTYQLKEEIHNGEFHME [M33E] | 0.678
53 | ITIHVNGVTYHFDNPEEAEKFAQKMAKTYQLKAEIHNGEFHME [M33A] | 0.574
54 | ITIHVNGVTYHFDNPEEAEKFAQKMAKTYQLKDEIHNGEFHME [M33D] | 0.558
55 | ITIHVNGVTYHFDNPEEAEKFAQKMAKTYQLKSEIHNGEFHME [M33S] | 0.431
56 | ITIHVNGVTYHFDNPEEAEKFAQKMAKTYQLKFEIHNGEFHME [M33F] | 1.18
57 | ITIHVNGVTYHFDNPEEAEKFAQKMAKTYQLKKEIHNGEFHME [M33K] | -0.407
58 | ITIHVNGVTYHFDNPEEAEKFAQKMAKTYQLKVEIHNGEFHME [M33V] | 1.46
59 | ITIHVNGVTYHFDNPEEAEKFAQKMAKTYQLKPEIHNGEFHME [M33P] | 0.368
